Assay results published in patent US20140087995A1 (published 2014).
Numbered stars: 1 amine (or outer) side, 2 acyl side, 3 side chain; on linkers, the order of the positions; unused ones are H or OH. Bridge positions count the residues as written; N and C are the ends. * marks the point of attachment. C20 diacid = O=C(O)CCCCCCCCCCCCCCCCCCC(=O)*; γGlu = O=C(O)[C@H](CCC(=O)[*:2])N[*:1]

T1: human amylin 3(a) receptor (human calcitonin receptor plus RAMP-3) (human, UniProt P30988 25-474; O60896 24-148, limits assumed)
T1 construct: whole, on cells; Whole cells in the luciferase assay (Assay II a); also called hAmylin-R; human amylin receptor
T1 sequence (looked up) 1: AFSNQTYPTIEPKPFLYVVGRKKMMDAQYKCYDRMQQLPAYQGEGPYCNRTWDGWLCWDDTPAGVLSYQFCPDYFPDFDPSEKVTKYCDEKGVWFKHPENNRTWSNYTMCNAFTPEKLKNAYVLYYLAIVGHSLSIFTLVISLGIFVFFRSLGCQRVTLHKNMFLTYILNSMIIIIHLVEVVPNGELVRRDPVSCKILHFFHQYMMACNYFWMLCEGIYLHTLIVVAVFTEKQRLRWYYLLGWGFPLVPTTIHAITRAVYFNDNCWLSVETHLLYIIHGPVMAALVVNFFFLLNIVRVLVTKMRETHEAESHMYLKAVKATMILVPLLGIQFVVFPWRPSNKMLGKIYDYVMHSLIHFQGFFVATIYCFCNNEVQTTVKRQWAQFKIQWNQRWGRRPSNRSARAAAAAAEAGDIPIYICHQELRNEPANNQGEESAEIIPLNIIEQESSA
T1 sequence (looked up) 2: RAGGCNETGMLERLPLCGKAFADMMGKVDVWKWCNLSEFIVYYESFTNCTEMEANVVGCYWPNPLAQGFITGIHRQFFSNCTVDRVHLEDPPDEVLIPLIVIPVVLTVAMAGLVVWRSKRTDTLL

T2: human calcitonin receptor (human, UniProt P30988 25-474)
T2 sequence (looked up): T1 sequence (looked up) 1

B1: N^α1-[(4S)-4-carboxy-4-(19-carboxynonadecanoylamino)butanoyl]-[Glu14,Arg17,Pro21,Pro27,Pro29]-h-amylin (peptide)
peptide: {C20 diacid-γGlu}-KCNTATCATQRLAEFLRHSSPNFGAIPSPTNVGSNTY-NH2
modifications: disulfide 2-7
SMILES: CC[C@H](C)[C@H](NC(=O)[C@H](C)NC(=O)CNC(=O)[C@H](Cc1ccccc1)NC(=O)[C@H](CC(N)=O)NC(=O)[C@@H]1CCCN1C(=O)[C@H](CO)NC(=O)[C@H](CO)NC(=O)[C@H](Cc1c[nH]cn1)NC(=O)[C@H](CCCNC(=N)N)NC(=O)[C@H](CC(C)C)NC(=O)[C@H](Cc1ccccc1)NC(=O)[C@H](CCC(=O)O)NC(=O)[C@H](C)NC(=O)[C@H](CC(C)C)NC(=O)[C@H](CCCNC(=N)N)NC(=O)[C@H](CCC(N)=O)NC(=O)[C@@H](NC(=O)[C@H](C)NC(=O)[C@@H]1CSSC[C@H](NC(=O)[C@H](CCCCN)NC(=O)CC[C@H](NC(=O)CCCCCCCCCCCCCCCCCCC(=O)O)C(=O)O)C(=O)N[C@@H](CC(N)=O)C(=O)N[C@@H]([C@@H](C)O)C(=O)N[C@@H](C)C(=O)N[C@@H]([C@@H](C)O)C(=O)N1)[C@@H](C)O)C(=O)N1CCC[C@H]1C(=O)N[C@@H](CO)C(=O)N1CCC[C@H]1C(=O)N[C@H](C(=O)N[C@@H](CC(N)=O)C(=O)N[C@H](C(=O)NCC(=O)N[C@@H](CO)C(=O)N[C@@H](CC(N)=O)C(=O)N[C@H](C(=O)N[C@@H](Cc1ccc(O)cc1)C(N)=O)[C@@H](C)O)C(C)C)[C@@H](C)O
notes: also called compound 37
B2: N^α1-[(4S)-4-carboxy-4-(19-carboxynonadecanoylamino)butanoyl]-[Glu14,Arg17,Pro21,Pro27,Pro31]-h-amylin (peptide)
peptide: {C20 diacid-γGlu}-KCNTATCATQRLAEFLRHSSPNFGAIPSSTPVGSNTY-NH2
modifications: disulfide 2-7
SMILES: CC[C@H](C)[C@H](NC(=O)[C@H](C)NC(=O)CNC(=O)[C@H](Cc1ccccc1)NC(=O)[C@H](CC(N)=O)NC(=O)[C@@H]1CCCN1C(=O)[C@H](CO)NC(=O)[C@H](CO)NC(=O)[C@H](Cc1c[nH]cn1)NC(=O)[C@H](CCCNC(=N)N)NC(=O)[C@H](CC(C)C)NC(=O)[C@H](Cc1ccccc1)NC(=O)[C@H](CCC(=O)O)NC(=O)[C@H](C)NC(=O)[C@H](CC(C)C)NC(=O)[C@H](CCCNC(=N)N)NC(=O)[C@H](CCC(N)=O)NC(=O)[C@@H](NC(=O)[C@H](C)NC(=O)[C@@H]1CSSC[C@H](NC(=O)[C@H](CCCCN)NC(=O)CC[C@H](NC(=O)CCCCCCCCCCCCCCCCCCC(=O)O)C(=O)O)C(=O)N[C@@H](CC(N)=O)C(=O)N[C@@H]([C@@H](C)O)C(=O)N[C@@H](C)C(=O)N[C@@H]([C@@H](C)O)C(=O)N1)[C@@H](C)O)C(=O)N1CCC[C@H]1C(=O)N[C@@H](CO)C(=O)N[C@@H](CO)C(=O)N[C@H](C(=O)N1CCC[C@H]1C(=O)N[C@H](C(=O)NCC(=O)N[C@@H](CO)C(=O)N[C@@H](CC(N)=O)C(=O)N[C@H](C(=O)N[C@@H](Cc1ccc(O)cc1)C(N)=O)[C@@H](C)O)C(C)C)[C@@H](C)O
notes: also called compound 31

Legend:
[1] = molecular target: T1, human amylin 3(a) receptor (human …); assay: SPA competition binding, displacement of 125I-rat amylin from membranes of Amylin 3(a)/CRE-luc BHK cells (Assay V)
In short: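 Membranes from BHK Amylin 3(a)/CRE-luc cells (35 ng/μL final) were mixed with SPA beads and test compounds in 50 mM Hepes pH 7.4 with 1 mM CaCl2, 5 mM MgCl₂, 0.1% OA and 0.02% Tween20. Incubation ran 120 min at 25° C with shaking; IC₅₀ came from one-site competition fitting.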

[2] = molecular target: T1, human amylin 3(a) receptor (human …); assay: cell-based or functional assay
[3] = molecular target: T2, human calcitonin receptor; assay: cell-based or functional assay

Binder	IC50 [1] [nM]	Ratio hCT/hAmylin funct. [2]	hAmylin-R funct. EC50 [2] [nM]	hCTR funct. EC50 [3] [nM]
B1	0.97	4	0.092	0.372
B2	0.204	6.4	0.112	0.717
